Measurements as given in paper PMC6232973.

Biological target: CC1-CC2-SUN fragment of mouse SUN2 (SUN2 residues 410-731), wild type (mouse)
Assay: SEC

CC1-CC2-SUN fragment of mouse SUN2 (SUN2 residues 410-731), wild type (domain or fragment)
stoichiometry N: 3
